The target in experiment [1] is T1, Human PD-1 (ACROBiosystems, Inc., Catalog No. PD1-H5221) (human, UniProt Q15116 25-167).
T1 construct: Bought recombinant protein; also called huPD1-His; PD-1-his; not shown: His tag of the bought protein (huPD1-His)
Briefly: SPR (Biacore), IgG as ligand, PD-1-his as sample. A general note: Surface plasmon resonance follows binding to a sensor surface in real time, without labels.

The target in experiment [2] is T2, human PD-1 expressed on the cell surface (CHO-PD1 cells) (human, UniProt Q15116 25-288).
T2 construct: Also used here as the target for native PD-1 on human PBMC / T cells in the functional (IFN-g) assays; also called CHO cell line overexpressing human PD-1; Cell-Surface Human PD-1 antigen
Briefly: FACS cell binding on CHO cells expressing human PD-1. As to the method:
(§1) A mix of parental CHO cells and CHO-PD1 cells was prepared as follows: Parental CHO cells were washed 2× in PBS then incubated in PBS containing 1 μM CellTrace™ Oregon Green488® (Life Technologies) at 37° C. for 30 minutes. Cells were then washed 2× with RPMI w/10% fetal calf serum (FCS), washed 2× with FACS buffer (PBS w/2% FCS), suspended thoroughly in ice-cold FACS buffer at a final concentration of 2×10⁶ cells/mL and kept on ice. CHO-PD1 cells were similarly washed with FACS buffer and kept on ice at 2×10⁶ cells/mL. Parental CHO cells and CHO-PD1 cells were then mixed to obtain a 1:1 cell suspension and seeded at 100 μL per well on 96 well polypropylene plates. Plates were spun at 1500 rpm for 5 minutes and cell pellets were suspended in 50 μL FACS buffer containing 6-12 point dilutions of anti-PD-1 variants starting from concentrations of −100-200 nM antibody, dispensed using BioMek FX (Beckman Coulter). Cells were then incubated on ice for 1 hr, washed with FACS buffer and incubated for 1 hr on ice with 50 μL FACS buffer containing 2.5 μg/ml R-phycoerythrin-conjugated goat anti-Human IgG (Jackson ImmunoResearch) or AF647-conjugated goat anti-mouse IgG (Life Technologies) dispensed using BioMek FX (Beckman Coulter). Cells were then washed 2× with FACS buffer and fixed for 10 minutes in 200 μL PBS with 2% paraformaldehyde (PFA) prior to fluorescence detection. Samples were acquired using a Becton Dickinson LSRII FACS. Mean Fluorescence Intensity of PD-1 antibody binding was analyzed using FlowJo® software (Tree Star, Inc.).
The affinity of the IgGs for cell-surface expressed human PD-1 were measured according to Example 6, above.

For experiment [3], the target named is T3, cynomolgus PD-1 expressed on CHO cells (cynomolgus, UniProt B0LAJ3 25-288).
T3 construct: also called Cell-Surface Cynomolgus PD-1 antigen
Put plainly: FACS cell binding on CHO cells expressing cynomolgus PD-1. As to the method: as §1
The affinity of the IgGs for cell-surface expressed cynomolgus PD-1 were measured according to Example 6, above.

In experiment [4] the target is T1, Human PD-1 (ACROBiosystems, Inc., …). Briefly: SPR (Biacore), IgG as ligand, PD-1-his as sample. The source holds these as a separate data set.

Like-named read-outs stand apart in the source and are kept apart here.

T1 sequence (Q15116 25-167 limits assumed): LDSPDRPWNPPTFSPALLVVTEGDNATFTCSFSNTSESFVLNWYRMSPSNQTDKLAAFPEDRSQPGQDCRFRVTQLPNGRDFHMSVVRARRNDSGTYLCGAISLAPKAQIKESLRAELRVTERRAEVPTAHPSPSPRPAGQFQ
T3 sequence (B0LAJ3 entry or part of it limits assumed, form in doubt): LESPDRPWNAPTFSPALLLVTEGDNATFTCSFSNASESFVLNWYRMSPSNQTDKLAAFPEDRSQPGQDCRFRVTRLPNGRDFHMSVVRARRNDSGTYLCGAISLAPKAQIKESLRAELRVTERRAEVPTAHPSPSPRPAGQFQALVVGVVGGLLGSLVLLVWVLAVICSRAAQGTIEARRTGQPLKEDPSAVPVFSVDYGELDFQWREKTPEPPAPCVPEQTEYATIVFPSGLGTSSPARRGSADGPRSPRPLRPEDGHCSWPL
T2 sequence (Q15116 25-288 limits assumed): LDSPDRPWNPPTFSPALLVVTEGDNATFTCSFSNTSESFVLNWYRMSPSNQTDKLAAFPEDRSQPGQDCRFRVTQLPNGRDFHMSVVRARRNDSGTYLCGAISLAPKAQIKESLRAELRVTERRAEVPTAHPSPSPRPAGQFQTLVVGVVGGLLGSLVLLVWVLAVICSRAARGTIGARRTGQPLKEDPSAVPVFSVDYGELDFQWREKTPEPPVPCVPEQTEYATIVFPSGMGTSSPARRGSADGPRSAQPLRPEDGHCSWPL

B1: h1E9-HC3 × h1E9-LC2 IgG (antibody)
heavy: not shown
light: MDIVLTQSPLSLPVTPGEPASISCRASESVDNSGISFMSWYLQKPGQSPQLLIYTASNQGSGVPDRFSGSGSGTDFTLKISRVEAEDVGVYYCQQSKEVPWTFGQGTKVEIKRTVAAPSVFIFPPSDEQLKSGTASVVCLLNNFYPREAKVQWKVDNALQSGNSQESVTEQDSKDSTYSLSSTLTLSKADYEKHKVYACEVTHQGLSSPVTKSFNRGEC
notes: Humanized IgG; heavy chain with C-terminal FlagHis tag
Take B1: the Kd (in general, the free concentration of one partner at which half of the binding sites on the other are occupied at equilibrium, for simple one-to-one binding) in experiment [1] was determined as 0.00319 µM; in experiment [2], 0.019 µM; in experiment [3], 0.011 µM.

B2: h1E9-5-IgG-HC-FLAG-HIS × h1E9-LC2 IgG (antibody)
heavy: not shown
light: MDIVLTQSPLSLPVTPGEPASISCRASESVDNSGISFMSWYLQKPGQSPQLLIYTASNQGSGVPDRFSGSGSGTDFTLKISRVEAEDVGVYYCQQSKEVPWTFGQGTKVEIKRTVAAPSVFIFPPSDEQLKSGTASVVCLLNNFYPREAKVQWKVDNALQSGNSQESVTEQDSKDSTYSLSSTLTLSKADYEKHKVYACEVTHQGLSSPVTKSFNRGEC
notes: also called h1E9-5 HC × h1E9-LC2
Consider B2, for which the Kd in experiment [1] was determined as 0.0162 µM; in experiment [2], 0.016 µM; in experiment [3], 0.011 µM.

B3: h1E9-HC2 × h1E9-LC2 IgG (antibody)
heavy: not shown
light: MDIVLTQSPLSLPVTPGEPASISCRASESVDNSGISFMSWYLQKPGQSPQLLIYTASNQGSGVPDRFSGSGSGTDFTLKISRVEAEDVGVYYCQQSKEVPWTFGQGTKVEIKRTVAAPSVFIFPPSDEQLKSGTASVVCLLNNFYPREAKVQWKVDNALQSGNSQESVTEQDSKDSTYSLSSTLTLSKADYEKHKVYACEVTHQGLSSPVTKSFNRGEC
notes: as for B1
With B3, the Kd in experiment [1] was found to be 0.0123 µM; in experiment [2], 0.011 µM; in experiment [3], 0.009 µM.

B4: h1E9-HC1 × h1E9-LC2 IgG (antibody)
heavy: not shown
light: MDIVLTQSPLSLPVTPGEPASISCRASESVDNSGISFMSWYLQKPGQSPQLLIYTASNQGSGVPDRFSGSGSGTDFTLKISRVEAEDVGVYYCQQSKEVPWTFGQGTKVEIKRTVAAPSVFIFPPSDEQLKSGTASVVCLLNNFYPREAKVQWKVDNALQSGNSQESVTEQDSKDSTYSLSSTLTLSKADYEKHKVYACEVTHQGLSSPVTKSFNRGEC
notes: as for B1
On to B4, for which the Kd in experiment [1] amounted to 0.019 µM; in experiment [2], 0.012 µM; in experiment [3], 0.019 µM.

B5: h1E9-HC3 × h1E9-LC4 IgG (antibody)
heavy: not shown
light: MDIVLTQSPDSLAVSLGERATINCRASESVDNSGISFMSWYQQKPGQPPKLLIYTASNQGSGVPDRFSGSGSGTDFTLTISSLQAEDVAVYYCQQSKEVPWTFGQGTKVEIKRTVAAPSVFIFPPSDEQLKSGTASVVCLLNNFYPREAKVQWKVDNALQSGNSQESVTEQDSKDSTYSLSSTLTLSKADYEKHKVYACEVTHQGLSSPVTKSFNRGEC
notes: as for B1
For B5, the dissociation constant (Kd) was 0.0094 µM in experiment [1], 0.009 µM in experiment [2] and 0.005 µM in experiment [3].

B6: h1E9-5-IgG-HC-FLAG-HIS × h1E9-LC4 IgG (antibody)
heavy: not shown
light: MDIVLTQSPDSLAVSLGERATINCRASESVDNSGISFMSWYQQKPGQPPKLLIYTASNQGSGVPDRFSGSGSGTDFTLTISSLQAEDVAVYYCQQSKEVPWTFGQGTKVEIKRTVAAPSVFIFPPSDEQLKSGTASVVCLLNNFYPREAKVQWKVDNALQSGNSQESVTEQDSKDSTYSLSSTLTLSKADYEKHKVYACEVTHQGLSSPVTKSFNRGEC
notes: also called h1E9-5 HC × h1E9-LC4
As for B6, the figures for the Kd in experiment [1], in experiment [2] and in experiment [3] were 0.00731 µM, 0.014 µM and 0.012 µM, respectively.

B7: h1E9-HC1 × h1E9-LC4 IgG (antibody)
heavy: not shown
light: MDIVLTQSPDSLAVSLGERATINCRASESVDNSGISFMSWYQQKPGQPPKLLIYTASNQGSGVPDRFSGSGSGTDFTLTISSLQAEDVAVYYCQQSKEVPWTFGQGTKVEIKRTVAAPSVFIFPPSDEQLKSGTASVVCLLNNFYPREAKVQWKVDNALQSGNSQESVTEQDSKDSTYSLSSTLTLSKADYEKHKVYACEVTHQGLSSPVTKSFNRGEC
notes: as for B1
For the molecule B7, the Kd in experiment [1] stood at 0.00633 µM; in experiment [2], 0.008 µM; in experiment [3], 0.011 µM.

B8: h1E9-HC2 × h1E9-LC4 IgG (antibody)
heavy: not shown
light: MDIVLTQSPDSLAVSLGERATINCRASESVDNSGISFMSWYQQKPGQPPKLLIYTASNQGSGVPDRFSGSGSGTDFTLTISSLQAEDVAVYYCQQSKEVPWTFGQGTKVEIKRTVAAPSVFIFPPSDEQLKSGTASVVCLLNNFYPREAKVQWKVDNALQSGNSQESVTEQDSKDSTYSLSSTLTLSKADYEKHKVYACEVTHQGLSSPVTKSFNRGEC
notes: as for B1
With B8, the equilibrium dissociation constant (Kd) in experiment [1] turned out to be 0.00496 µM; in experiment [2], 0.004 µM; in experiment [3], 0.006 µM.

B9: h1E9-5 IgG (antibody)
heavy: not shown
light: MEIVLTQSPATLSLSPGERATLSCRASESVDNSGISFMSWYQQKPGQAPRLLIYTASNQGSGIPARFSGSGSGTDFTLTISSLEPEDFAVYYCQQSKEVPWTFGQGTKVEIKRTVAAPSVFIFPPSDEQLKSGTASVVCLLNNFYPREAKVQWKVDNALQSGNSQESVTEQDSKDSTYSLSSTLTLSKADYEKHKVYACEVTHQGLSSPVTKSFNRGEC
notes: Human IgG1; heavy chain with C-terminal FlagHis tag; made by cell-free expression; also called h1E9-5 human IgG1
Regarding B9, in experiment [4], binding was characterised by a dissociation constant (Kd) of 0.0194 µM; the koff (in general, a measure of how fast the partners let go of each other) was 0.000471 s⁻¹; the kon (in general, the rate constant with which the complex forms) amounted to 24300 M⁻¹ s⁻¹.

B10: h1E9-4 IgG (antibody)
heavy: not shown
light: MDIQLTQSPSFLSASVGDRVTITCRASESVDNSGISFMSWYQQKPGKAPKLLIYTASNQGSGVPSRFSGSGSGTEFTLTISSLQPEDFATYYCQQSKEVPWTFGQGTKVEIKRTVAAPSVFIFPPSDEQLKSGTASVVCLLNNFYPREAKVQWKVDNALQSGNSQESVTEQDSKDSTYSLSSTLTLSKADYEKHKVYACEVTHQGLSSPVTKSFNRGEC
notes: Human IgG1; heavy chain with C-terminal FlagHis tag; made by cell-free expression; also called h1E9-4 human IgG1
In the case of B10, in experiment [4], the affinity, expressed as Kd, was 0.0124 µM; the koff is 0.000442 s⁻¹; the kon was 35600 M⁻¹ s⁻¹.

(Values after patent US20210107981A1 (SUTRO BIOPHARMA, published 2021).)
